Data as given in patent US7745151B2, “Methods of determining binding between Nogo receptor and p75 neurotrophin receptor” (Children's Medical Center Corporation, priority 2002, dated 2010).

T1: CHO cells expressing full-length NgR (Homo sapiens, UniProt Q9BZR6)
T1 construct: expressed in transfected cells; host or cells: CHO cells
T1 sequence (Q9BZR6 27-473): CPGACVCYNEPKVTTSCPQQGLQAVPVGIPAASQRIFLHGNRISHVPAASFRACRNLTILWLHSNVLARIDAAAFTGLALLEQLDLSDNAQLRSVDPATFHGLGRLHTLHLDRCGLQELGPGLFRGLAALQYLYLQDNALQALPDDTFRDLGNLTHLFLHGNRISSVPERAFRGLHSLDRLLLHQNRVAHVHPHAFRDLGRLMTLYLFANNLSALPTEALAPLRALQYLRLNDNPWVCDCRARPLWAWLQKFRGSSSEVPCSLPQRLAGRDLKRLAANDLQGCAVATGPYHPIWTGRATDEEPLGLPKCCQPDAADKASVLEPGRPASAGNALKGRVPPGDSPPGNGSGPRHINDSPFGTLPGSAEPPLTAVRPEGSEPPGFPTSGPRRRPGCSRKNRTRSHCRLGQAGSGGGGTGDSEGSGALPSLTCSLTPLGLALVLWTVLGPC

B1: OM-his: myelin inhibitor protein; his-tagged OMgp (protein, UniProt P23515 25-417, looked up)
Oligodendrocyte-myelin …: ICPLQCICTERHRHVDCSGRNLSTLPSGLQENIIHLNLSYNHFTDLHNQLTQYTNLRTLDISNNRLESLPAHLPRSLWNMSAANNNIKLLDKSDTAYQWNLKYLDVSKNMLEKVVLIKNTLRSLEVLNLSSNKLWTVPTNMPSKLHIVDLSNNSLTQILPGTLINLTNLTHLYLHNNKFTFIPDQSFDQLFQLQEITLYNNRWSCDHKQNITYLLKWMMETKAHVIGTPCSTQISSLKEHNMYPTPSGFTSSLFTVSGMQTVDTINSLSVVTQPKVTKIPKQYRTKETTFGATLSKDTTFTSTDKAFVPYPEDTSTETINSHEAAAATLTIHLQDGMVTNTSLTSSTKSSPTPMTLSITSGMPNNFSEMPQQSTTLNLWREETTTNVKTPLPS
modifications: His tag
notes: his-tagged OMgp
B2: AP-p75: alkaline phosphatase (AP) fusion protein containing the extracellular domain of P75 (protein)
chain: KETCSTGLYTHSGECCKACNLGEGVAQPCGANQTVCEPCLDNVTFSDVVSATEPCKPCTECLGLQSMSAPCVEADDAVCRCAYGYYQDEETGHCEACSVCEVGSGLVFSCQDKQNTVCEECPEGTYSDEANHVDPCLPCTVCEDTERQLRECTPWADAECEEIPGRWIPRSTPPEGSDSTAPSTQEPEVPPEQDLVPSTVADMVTTVMGSSQPVVTRGTTDNLI
modifications: left off: large carriers; small tags and cut ends

Experiments:
DRG neurons = assay: Neurite outgrowth assay, wild type versus P75 mutant neurons; assay type: cell-based, mice
Excerpt: We use a neurite outgrowth assay to compare the responses of neurons from wild type mice and those carrying a mutation in the P75 gene to individual inhibitors (Lee et al., Cell 1992 May 29; 69(5):737-49). Neurite outgrowth of DRG neurons from P75 (−/−) was not inhibited by MAG-Fc.

[1] = molecular target: T1, CHO cells expressing full-length NgR; assay: Cell surface binding assay of AP-p75
Excerpt: When we overexpress HA-tagged P75 and FLAG-tagged NgR into CHO cells, we find that p75 can be co-immunoprecipitated with NgR, but not with a control transmembrane protein Plexin A3. We also utilize a cell surface binding assay to better visualize the NgR/P75 interaction.
Upon expression in cerebellar granule neurons (CGNs), this truncated NgR, but not full-length NgR, blocks the inhibitory responses elicited by immobilized inhibitors.
Exemplary experimental protocols: Binding experiments: Sequence encoding the extracellular domain of rat p75 was subcloned into the expression vector AP-5 to express an AP-p75 fusion protein tagged with both a polyhistidine and a myc epitope. The resultant plasmid DNA was transfected into COS-7 cells and the secreted protein purified using nickel-Agarose resins (Qiagen). Cell surface binding with AP-p75 and other AP proteins were performed as described previously. For visualization of bound proteins, NBT and BCIP were used as AP substrates.

Row | Molecule | neurite outgrowth inhibition (DRG neurons; neurons from P75 (-/-) mice) | neurite outgrowth inhibition (DRG neurons; wild type neurons) | binding of AP-p75 to NgR-expressing cells [1]
1 | B1 | neither of these proteins restrict neurite outgrowth | efficiently inhibited | –
2 | B2 | – | – | able to bind CHO cells expressing full-length NgR specifically
